Earlier results on one substance are cited in article PMC9784434.

The series concerns the target NKG2D (Homo sapiens) (UniProt P26718).
Sequence of UniProt P26718 (P26718 whole entry): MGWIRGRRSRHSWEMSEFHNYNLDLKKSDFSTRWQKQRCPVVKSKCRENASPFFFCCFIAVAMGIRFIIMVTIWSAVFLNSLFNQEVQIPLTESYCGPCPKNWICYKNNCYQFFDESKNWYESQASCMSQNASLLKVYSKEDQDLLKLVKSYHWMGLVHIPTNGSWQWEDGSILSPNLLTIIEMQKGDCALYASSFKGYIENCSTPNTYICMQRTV

One may read the Kd as the concentration at which binding is half-saturated. In the case of MICB (from UniProt Q29980), the Kd was 800 nM.
